ECL signal data for 1 substance are collected here from US20180355043A1.

Holding throughout (assay): MSD ECL; antigen coated; protocol of Example 3
For assay [1], the target named is DR4G107 (HLA DPB4:01, peptide CLIP) (human).
For assay [2], the target named is DR4G86: Human HLA-DRA1*01:02/DRB1*04:01 ECD with CLIP peptide (human).
Assay [3] concerns the target DR4G101: Human HLA-DRA1*01:02/DRB1*04:02 ECD with collagen II peptide CII_257-273 (human).
For assay [4], the target named is DR4G117: Human HLA-DRA1*01:02/DRB1*03:01 ECD with Collagen II peptide CII_1236-1249 (human).
For assay [5], the target named is DR4G112: Human HLA-DQA1*01:02/DQB1*06:02 ECD with PLP peptide PLP_178-186 (human).
Assay [6] concerns the target DR4G145 (HLA DQB2:01, peptide CLIP) (human).
Assay [7] concerns the target DR4G115 (HLA DPB4:01, peptide LCAP) (human).
Assay [8] addresses DR4G142: Human HLA-DRA1*01:02/DRB1*03:01 ECD_VimentineL70A (human).
Assay [9] has as its target DR4G96: Human HLA-DRA1*01:02/DRB1*01:01 ECD with CLIP peptide (human).
For assay [10], the target named is DR4G110: Human HLA-DRA1*01:02/DRB1*04:01 ECD with aggrecan peptide N1 (human).
In assay [11] the target is DR4G92: Human HLA-DRA1*01:02/DRB1*04:01 ECD with collagen II peptide CII_257-273 (human).
For assay [12], the target named is DR4G143: Human HLA-DRA1*01:02/DRB1*04:01 ECD_VimentineL70A (human).
Assay [13] concerns the target DR4G102: Human HLA-DRA1*01:02/DRB1*01:01 ECD with collagen II peptide CII_257-273 (human).
The target in assay [14] is DR4G99: Human HLA-DRA1*01:02/DRB1*01:01 ECD with collagen peptide CII_1236-1249 (human).
Assay [15] concerns the target DR4G97: Human HLA-DRA1*01:02/DRB1*15:01 ECD with collagen II peptide CII_1236-1249 (human).
Assay [16] deals with DR4G98: Human HLA-DRA1*01:02/DRB1*04:02 ECD with collagen II peptide CII_1236-1249 (human).
Assay [17] deals with DR4G146 (HLA DQB2:01, peptide CLIP) (human).

Sequence of DR4G115 (HLA DPB4:01, peptide LCAP) (human) (P20036 29-222, chain 1 of 2): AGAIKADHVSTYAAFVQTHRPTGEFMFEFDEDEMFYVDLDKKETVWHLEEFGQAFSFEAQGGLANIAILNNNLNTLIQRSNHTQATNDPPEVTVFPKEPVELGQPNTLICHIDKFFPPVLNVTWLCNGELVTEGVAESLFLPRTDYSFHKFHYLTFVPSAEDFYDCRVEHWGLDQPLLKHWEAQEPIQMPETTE
Sequence of DR4G115 (HLA DPB4:01, peptide LCAP) (human) (P04440 30-225, chain 2 of 2, further chain): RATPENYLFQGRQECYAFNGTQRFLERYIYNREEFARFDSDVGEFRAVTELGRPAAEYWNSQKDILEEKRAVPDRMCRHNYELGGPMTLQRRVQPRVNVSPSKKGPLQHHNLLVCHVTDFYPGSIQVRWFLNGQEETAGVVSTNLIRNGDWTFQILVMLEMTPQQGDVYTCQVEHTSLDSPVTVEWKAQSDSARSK

In the case of Isotype control (antibody), the ECL signal is 153 ECL in assay [1]; 335 ECL in assay [2]; 1250 ECL in [3]; 603 ECL in assay [4]; 250 ECL in assay [5]; 2780 ECL in [6]. The ECL signal in assay [7] stood at 91 ECL; in assay [8], 2220 ECL; in assay [9] it was 781 ECL; in assay [10] it was 1030 ECL; in assay [11], 486 ECL; in assay [12] it was 410 ECL. Further, the ECL signal came to 392 ECL in assay [13]; 490 ECL in assay [14]; 393 ECL in [15]; 613 ECL in assay [16]; 1470 ECL in assay [17].
